Experimental data reported in the nanobody polyreactivity screen of Harvey et al. (2022).

Experiment: yeast display, Sf9 membrane polyspecificity reagent, FACS + sequencing; frameworks hold sequencing errors
Summary of the method: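 Polyreactivity labels are assigned by the sorting gate from which each nanobody was recovered. The gates were low and high (top ~1%), set on anti-HA fluorescence for expression and streptavidin fluorescence for reagent binding. Before sorting, galactose-induced (36–48 hours) yeast display cells were stained for 1 hour at 4 °C with 10% biotinylated, detergent-solubilized Sf9 membrane reagent.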

Question: For “QVQLVESGGGLVQAGGSLRLICAASGFIFVDNAMGWYRQAPGKERELVAAITSGASTYYADSVKGRFTISRDNAKITVYLQMNSLKPEDTAVYYCAADYLYYYTWYNYWGQGTQVTVSS”, which “polyreactivity (PSR sort gate)” value is on record?
Answer: low polyreactivity

Question: With “QVQLVESGGGLVQAGGSLRLICAASGFIFWFYAMGWYRQAPGKERELVASISASGGSTNYADSVKGRFTISRDKAKNTVYLQMNSLKPEDTAVYYCAARKRYQRGYWGQGTQVTVSS” as the sequence, how does the “polyreactivity (PSR sort gate)” value read?
Answer: high polyreactivity

Question: For “QVQLVESGGGLVQAGGSLRLICAASGFILKPNAMGWYRQAPGKERELVAAISWSSGSTYYADSVKGRFTISRDNAKNTVYLQMNSLKPEDTAVYYCAADYFVYPVDWYDYWGQGTQVTVSS”, which “polyreactivity (PSR sort gate)” value is on record?
Answer: low polyreactivity

Question: With “QVQLVESGGGLVQAGGSLRLICAASGFNFQRYAMGWYIQAPGKERELVATISNSGGRTYYADSVKGRFTISRDNAKNTVYLQMNSLKPEDTAVYYCAAGKPYSSYWSWGYWSNLEDDYWGQGTQVTVSS” as the sequence, how does the “polyreactivity (PSR sort gate)” value read?
Answer: high polyreactivity

Question: For “QVQLVESGGGLVQAGGSLRLICAASGFTFASNDMGWYRQAPGKERELVAAITKGGGRTYYADSVKGRFTISRDNAKNTVYFQMNSLKPEETAVYYCAGRQLIKYDYWGQGTQVTVSS”, which “polyreactivity (PSR sort gate)” value is on record?
Answer: low polyreactivity

Question: Which “polyreactivity (PSR sort gate)” value does the source give for “QVQLVESGGGLVQAGGSLRLICAASGFTFDYNAMGWYRPAPVKERELVAAISGSGGSTFYADSVKGRFTISRDNAKNTVYLQMNSLKPEDTAVYYCNVYQHDDDFDYWGQGTQVTVSS” here?
Answer: low polyreactivity

Question: Which “polyreactivity (PSR sort gate)” value does the source give for “QVQLVESGGGLVQAGGSLRLICAASGFTFLVYAMAWDRQAPGKERELVAAIRWRGGSTYADSLKGRFTISRDNAKNTVYLQMYSLKPEDTAVYYCAAANRYYVSPRVYYWGQGTQVTVSS” here?
Answer: high polyreactivity

Question: With “QVQLVESGGGLVQAGGSLRLICAASGFTFNFYAMGWYRQAPGKEMELVASITSSGARTYYADSVKGRFTISRDNAKNSVYLQMNSQKPEDTAVYYCAARVYRYSASRAYDYWGQGTQVTVSS” as the sequence, how does the “polyreactivity (PSR sort gate)” value read?
Answer: high polyreactivity

Question: Which “polyreactivity (PSR sort gate)” value does the source give for “QVQLVESGGGLVQAGGSLRLICAASGFTFSKYGMVWYRQAPGKERELVAAISGSGGNTYYADSVKGRFTISRDNAKNTVYLLINSLKPEDTAVYYCNATWELLSYYYLFWGYDYWGQGTQVTVSS” here?
Answer: low polyreactivity

Question: Which “polyreactivity (PSR sort gate)” value does the source give for “QVQLVESGGGLVQAGGSLRLICAASGFTLYAYAMGWYRQAPGKERELVAAISDSGGDTYYADSVKGRFTISRDNAKNTVYLQMNSLKPEDTAVYYCAALYNHWWEYDYWGQGTQVTVSS” here?
Answer: low polyreactivity

Question: For “QVQLVESGGGLVQAGGSLRLICAASGFTYRGYAMGWYRQAPGKERELVAAISSSVGSTYYADAVKGRFTISRDNAKNTVYLQKISLKPEDTAVYYCAARKGYVIRYNYWGQGTQVTVSS”, which “polyreactivity (PSR sort gate)” value is on record?
Answer: high polyreactivity

Question: Which “polyreactivity (PSR sort gate)” value does the source give for “QVQLVESGGGLVQAGGSLRLICAASGGTFSHNDMGWYRQAPGKEMELVASINSGGSTNYADSVKGRFTISRDNAKNTVYLQMNSLKPEDSAVYYCAADVEGWTVESDVYRVGYDYWGHGTQVTVSS” here?
Answer: low polyreactivity

Question: Which “polyreactivity (PSR sort gate)” value does the source give for “QVQLVESGGGLVQAGGSLRLICAASGIIFAYNAMGWYRQAPGKESELVAAISVIGGTTYYADSVKGRFTMSRDNAKNTVYLRMNSLKPEDSAVYYCAVDSVQYGGGYERLHELYYWGQGTQVTVSS” here?
Answer: low polyreactivity

Question: For “QVQLVESGGGLVQAGGSLRLICAASGIIFDSYAMGWYSQEPGKERELVAAITSDSGRTYYADSVKGRFTISRDNAKNNVYLEMNSLKPEDTAVYYCAKRWDGPYDYWGQGTQVTVSS”, which “polyreactivity (PSR sort gate)” value is on record?
Answer: low polyreactivity

Question: For “QVQLVESGGGLVQAGGSLRLICAASGIIFDVYAMGWYRQAPGKERELVAAISYGGGTTYYADSVKGRFTISRDNAKNTVYLQMNSLKPEDTAVYYCAADSYRSIGDDYWGQGTQVTVSS”, which “polyreactivity (PSR sort gate)” value is on record?
Answer: high polyreactivity

Question: With “QVQLVESGGGLVQAGGSLRLICAASGIIFSEYAMGWYRQAPGKERELVAVITSGGSTYYADSVKGRFTISRDNAKNTVYLQMNSLKPEDTAVYYCAARGYRYPMYWGQGTQVTVSS” as the sequence, how does the “polyreactivity (PSR sort gate)” value read?
Answer: high polyreactivity

Question: With “QVQLVESGGGLVQAGGSLRLICAASGIIFVRYVMGWYRQAPGKEMELVAAINWSGGSTYYADSVKGRFTISRDNAKYTVYLQMNSLKPEDTAVYFCCAGSARDDDYWGQGTQVTVSS” as the sequence, how does the “polyreactivity (PSR sort gate)” value read?
Answer: high polyreactivity

Question: For “QVQLVESGGGLVQAGGSLRLICAASGITFRLNVMGWDRQAPGKERELVARISRAGSTKYADSVKGRFTISRDNAKNTVYLQMNCLKPEDTAVYYCNRYYRRATKVGYWGQGTQVTVSS”, which “polyreactivity (PSR sort gate)” value is on record?
Answer: high polyreactivity

Question: With “QVQLVESGGGLVQAGGSLRLICAASGITFYDYAMGWYRQAPGKERELVAVITRRGGSTYYADSVKGRFTISRDNAKNTVYLQMNSLKPEDTAVYYCAADWRGWSFVRGDDYWGQGTQVTVSS” as the sequence, how does the “polyreactivity (PSR sort gate)” value read?
Answer: high polyreactivity

Question: Which “polyreactivity (PSR sort gate)” value does the source give for “QVQLVESGGGLVQAGGSLRLICAASGLIFAVYAMGWYRQAPGKERELVAGISASAASTYYADSVKGRFTISRDNAKNTVFLQMNSLNPEDTAVYYCAADFYWFWTYGTLWYGYEYWGLGTQVTVSS” here?
Answer: high polyreactivity

Question: Which “polyreactivity (PSR sort gate)” value does the source give for “QVQLVESGGGLVQAGGSLRLICAASGLIFDYYRMGWYRQATGKQRELVAAITSSGSRTYYADSVKGRFTISRDNAKKTVYLQMNSLNPEDTAVYFCARGGGRRKGLVDYWGQGTQVTVSS” here?
Answer: low polyreactivity

Question: Which “polyreactivity (PSR sort gate)” value does the source give for “QVQLVESGGGLVQAGGSLRLICAASGLIFYRYAMGWYRPEPGKERELVAVISRGGSTFYADSVKGRFTISRDNAKNTVYLQMNSLTPEDTAVYFCAAAQTSQAYRYWYYYWGQGTQVTVSW” here?
Answer: high polyreactivity

Question: With “QVQLVESGGGLVQAGGSLRLICAASGLTFGWYAMGWYRQAPGKERELVAAITYDGDSTYYADSVKGRFTISRDNAKNTVYLQMNSLKPEDTAVYYCAAEYGYGEMDSWGQGTQVTVSS” as the sequence, how does the “polyreactivity (PSR sort gate)” value read?
Answer: high polyreactivity

Question: Which “polyreactivity (PSR sort gate)” value does the source give for “QVQLVESGGGLVQAGGSLRLICAASGLTFTPNAMGWYRQAPWKEREFVAAITWRGGRTYYADSVKGRFTISRDNAKNTVYLQMNSLKPEDTAVYYCAVTYRPTDQLDYWGQGTQVTVSS” here?
Answer: high polyreactivity

Question: Which “polyreactivity (PSR sort gate)” value does the source give for “QVQLVESGGGLVQAGGSLRLICAASGLTFVTYAMGWYRQAPGKERELVAAITWSVGGTTYYADSVKGRFTISRDNAKNTVYLQMNSLKPEDTAVYYCAAESYSYYYDYYYWGQGTQVTVSS” here?
Answer: high polyreactivity

Question: With “QVQLVESGGGLVQAGGSLRLICAASGNIFAVYAMGWYRQAPGKERELVAAITTGTNTYADSVKGRFTISRDNAKNNVYLQMNSLKPEDTAVYFCAARYYRPLDYWGQGTQVTVSS” as the sequence, how does the “polyreactivity (PSR sort gate)” value read?
Answer: low polyreactivity

Question: For “QVQLVESGGGLVQAGGSLRLICAASGNIFYIYAMVWDRQAPWKERELVAAISWSCCSTYYADSVKGRFTISRDNAKNTVYCQMNSLKPEDTSVYYCDVEFTPKRWVSYRTMYSWGQGTQVTVSS”, which “polyreactivity (PSR sort gate)” value is on record?
Answer: high polyreactivity

Question: For “QVQLVESGGGLVQAGGSLRLICAASGNTFYGYAMGWYRQAPGKERELVASITLSGDSTYYADSVKGRFTISRDNAKNTVYVQMNSLKPEDTAVYYCAGVYTYPLGYYHDTYDYWGQGTQVTVSS”, which “polyreactivity (PSR sort gate)” value is on record?
Answer: low polyreactivity

Question: With “QVQLVESGGGLVQAGGSLRLICAASGRIFGPYAMGWYRQAPGKERELVASISYSGGSTYYADSVKGRFTISRDNAKNTVYLQMNSLKPDDTAVYYCAKGGYWRGYNYWGQGTQVTVSS” as the sequence, how does the “polyreactivity (PSR sort gate)” value read?
Answer: low polyreactivity

Question: For “QVQLVESGGGLVQAGGSLRLICAASGRIFHYYMGWYRQAPGKEMELVAVISSGDGTYYADSVKGRFTISRDNAKYTFYLQMNSLKPEDTAVYYWAADAPREYDDHYKYDDDYCGQGTQVTVSS”, which “polyreactivity (PSR sort gate)” value is on record?
Answer: low polyreactivity

Question: Which “polyreactivity (PSR sort gate)” value does the source give for “QVQLVESGGGLVQAGGSLRLICAASGRIFIYYAMGWYRQAPGKERELVAAITGRDGSTYYADSVKGRFTISRDNAKNTVDLQKISLKPEDTAVYYCAASRFYFRRTFGGYPKLASYDYWGQGTQVTVSS” here?
Answer: low polyreactivity

Question: Which “polyreactivity (PSR sort gate)” value does the source give for “QVQLVESGGGLVQAGGSLRLICAASGRIFPGYTMGWYRQAPGKEREFFAAISYSGGSTYADSVKGRFTISRDNAKNTVYLQMNSLKPEDTAVYYCAVVLQHWLDMYYWGQVTQVTVSS” here?
Answer: low polyreactivity

Question: With “QVQLVESGGGLVQAGGSLRLICAASGRIFQIYAMGWYRQAPGKEREVVAAISSGGTTYYADSVKGRFTISRDNAKNTVYLQMNSLKPEDTAVYYCAAVAWDLYSDGQEYNYWGQGPQVTVSS” as the sequence, how does the “polyreactivity (PSR sort gate)” value read?
Answer: high polyreactivity

Question: For “QVQLVESGGGLVQAGGSLRLICAASGRIFRGYVMGWYRQAPGKERELVASIDRSGASTYYADSVKGRFTISRDNAKNTVYLQMNSLKPEDTAVYYCNALVYLRTSRYYYWGQGTQVTVSS”, which “polyreactivity (PSR sort gate)” value is on record?
Answer: high polyreactivity

Question: Which “polyreactivity (PSR sort gate)” value does the source give for “QVQLVESGGGLVQAGGSLRLICAASGRIFRRNVMGWYRQAPGKDRELVAAIRGTGSTTYADSVKGRFTISRDNAKNTVYLQMNSLKPEDTAVYYCNAYKGQTGGGGRYGYWGQGTQVTVSS” here?
Answer: high polyreactivity

Question: With “QVQLVESGGGLVQAGGSLRLICAASGRIFRVNAMGWYIQAPGKERELVAGITWSGGSTYYADSVKGRFTISRDNAKNTVYLQMNSLQPEDTAVYSCNAEYSPSYLFYWYEYIYWGQGSQVTVSS” as the sequence, how does the “polyreactivity (PSR sort gate)” value read?
Answer: high polyreactivity

Question: For “QVQLVESGGGLVQAGGSLRLICAASGRIFTYNAMGWYRQAPGKERELVARITSGGNTNYADSVKGRFTISRDNAKNTVYLQMNSLKPEDTAVYYCATGLFWFTNRYGSWGQGTQVTVSS”, which “polyreactivity (PSR sort gate)” value is on record?
Answer: low polyreactivity

Question: Which “polyreactivity (PSR sort gate)” value does the source give for “QVQLVESGGGLVQAGGSLRLICAASGRIFYHNAMGWYRQAPGKERELDAAITWSGGSTYYADSVKGRFTISRDNAKNTVYLQMNSLKPEDTAVYYCAALWLVNHYYPSQDYDYWGQGSQVTVSS” here?
Answer: high polyreactivity

Question: With “QVQLVESGGGLVQAGGSLRLICAASGRIIPSYSMGWYRQAPAKEREFVAVIRSSVDGTYYADSVKGRFTISRDYAKNTVYLHMNSLNPDDTSVYYFSADSYPFFIRNLYPVLEGEYGHWGQGTQVNVSS” as the sequence, how does the “polyreactivity (PSR sort gate)” value read?
Answer: low polyreactivity

Question: With “QVQLVESGGGLVQAGGSLRLICAASGRISGRYAMGWYRQAPGKERELVAAITSRGGRTYYADSVKGRFTISRDNAKNTVYLQMNSLKPEDTAVYYCIAVGGYWFDYWGQGTQVTVSS” as the sequence, how does the “polyreactivity (PSR sort gate)” value read?
Answer: high polyreactivity

Question: Which “polyreactivity (PSR sort gate)” value does the source give for “QVQLVESGGGLVQAGGSLRLICAASGRIYRYYAMGWYRQAPGKERELVAAITSDGRTYYADSVKGRFTISRDNAKNTVYLQMNSLKPEDTAVYYCAADHHSYRYGGYYYWGQGTQVTVSS” here?
Answer: low polyreactivity

Question: With “QVQLVESGGGLVQAGGSLRLICAASGRTFDGYVMGLYRQAPGKERELVASIRGTGSTYYADSVKGRFTISRENAKNTVYLQMNSLKPEDTAVYYCAARPGYAYDWGQGTQVTVSS” as the sequence, how does the “polyreactivity (PSR sort gate)” value read?
Answer: high polyreactivity

Question: Which “polyreactivity (PSR sort gate)” value does the source give for “QVQLVESGGGLVQAGGSLRLICAASGRTFDLYAMGWCRQAPGKEREFVAAITKGGGSTYYADSVKGRFTISRDNAKNTVYLQMNSLKPEDTAVYYCAARKYKRIYRISSGIGYYWGQGTQVTVSS” here?
Answer: high polyreactivity
